The results in this text go back to PMC7921117, “Structural characterization of the microbial enzyme urocanate reductase mediating imidazole propionate production” (Nature Communications, 2021).

The data set concerns the molecule itself. Kind of data set: elution peak in chromatography during purification; purification of His-tagged UrdA′; the sentence follows the HisTrap HP imidazole gradient; one large asymmetrical peak.

B1: two-domain urocanate reductase UrdA′ (clamp domain and FAD-binding domain) from Shewanella oneidensis MR-1 (domain or fragment, Shewanella oneidensis (strain MR-1), UniProt Q8CVD0 130-582, looked up)
chain: EYTYDVVIIGSGGAGFSAGLEAIAAGRSAVIIEKMPIIGGNSLISGAEMNVAGSWVQKNMGITDSKELFISDTLKGGDFKGDPEMVKTMVDNAVGAAEWLRDYVKVEFYPDQLFQFGGHSVKRALIPKGHTGAEVISKFSIKADEVGLPIHTNTKAEKLIQDQTGRIVGVEAAHNGKTITYHAKRGVVIATGGFSSNMEMRKKYNPELDERYGSTGHAGGTGDGIVMAEKIHAAAKNMGYIQSYPICSPTSGAIALIADSRFFGAVLINQKGERFVEELERRDVISHAILAQPGRYTYVLWNQDIENVAHTVEMHQGELKEFTKDGLMYKVDTLEEAAKVFNIPEDKLLSTIKDVNHYAATGKDEAFNHRSGLVDLSKGPYWILKATPSVHHTMGGLVVDTRTRVLDEQGKVIPGLFAAGEVTGLTHGTNRLGGNAYTDIIVYGRIAGQEAAK
notes: Synthetic gene in pET-24a(+); The main peak fraction, mostly monomeric, was used for further experiments; also called UrdA′wt; Two-domain WT; source: E. coli TUNER (DE3), purified (HisTrap HP; size-exclusion chromatography before crystallization); not shown: 6xHis, C-terminal, kept
B1: the binding result is recorded as “binds”.
